Here are results for 2 molecules from article PMC7078746, “Processing of the SARS-CoV pp1a/ab nsp7–10 region” (Biochemical Journal, 2020).

The series “native MS” deals with the molecule itself. Briefly: native MS.
The target in series [1] is T1, SARS-CoV nsp9 (SARS-CoV), P0C6X7.
T1 chain: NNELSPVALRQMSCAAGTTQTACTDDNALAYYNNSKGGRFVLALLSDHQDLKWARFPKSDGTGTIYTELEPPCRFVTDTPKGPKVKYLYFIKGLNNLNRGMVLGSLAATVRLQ
Briefly: native MS. The settings on record: remark: other sources report otherwise.

B1: SARS-CoV main protease M^pro with authentic ends (enzyme)
chain: SGFRKMAFPSGKVEGCMVQVTCGTTTLNGLWLDDTVYCPRHVICTAEDMLNPNYEDLLIRKSNHSFLVQAGNVQLRVIGHSMQNCLLRLKVDTSNPKTPKYKFVRIQPGQTFSVLACYNGSPSGVYQCAMRPNHTIKGSFLNGSCGSVGFNIDYDCVSFCYMHHMELPTGVHAGTDLEGKFYGPFVDRQTAQAAGTDTTITLNVLAWLYAAVINGDRWFLNRFTTTLNDFNLVAMKYNYEPLTQDHVDILGPLSAQTGIAVLDMCAALKELLQNGMNGRTILGSTILEDEFTPFDVVRQCSGVTFQ
notes: also called 3CL^pro; nsp5
In the case of B1, in the series “native MS”, the stoichiometry N (usually the number of molecules, sites or subunits per partner or assembly) came to 2.

B2: SARS-CoV nsp9, P0C6X7 (natural protein)
chain: T1 chain
In series [1], B2 returned a mass fraction of dimers of 25%, a mass fraction of monomers of 75% and a stoichiometry N of 2.
